Data from PMC3900769 (Journal of molecular biology, 2009).
Values joined by “and” are separate entries in the source; they are usually repeats but may differ in a detail not shown here. Equal values may be shown once.

Experiments:
[1] = target: HPV11 E6 4C/4S separated from the MBP tag (human papillomavirus type 11) (UniProt P04019); assay: SEC
[2] = target: HPV11 MBP-E6 4C/4S (human papillomavirus type 11) (UniProt P04019); assay: SEC
[3] = target: E6AP peptide (Homo sapiens) (UniProt Q05086); assay: SPR; conditions: cited from earlier work
[4] = target: the molecule itself; assay: SEC

Chain of E6AP peptide (Homo sapiens) (Q05086 whole entry): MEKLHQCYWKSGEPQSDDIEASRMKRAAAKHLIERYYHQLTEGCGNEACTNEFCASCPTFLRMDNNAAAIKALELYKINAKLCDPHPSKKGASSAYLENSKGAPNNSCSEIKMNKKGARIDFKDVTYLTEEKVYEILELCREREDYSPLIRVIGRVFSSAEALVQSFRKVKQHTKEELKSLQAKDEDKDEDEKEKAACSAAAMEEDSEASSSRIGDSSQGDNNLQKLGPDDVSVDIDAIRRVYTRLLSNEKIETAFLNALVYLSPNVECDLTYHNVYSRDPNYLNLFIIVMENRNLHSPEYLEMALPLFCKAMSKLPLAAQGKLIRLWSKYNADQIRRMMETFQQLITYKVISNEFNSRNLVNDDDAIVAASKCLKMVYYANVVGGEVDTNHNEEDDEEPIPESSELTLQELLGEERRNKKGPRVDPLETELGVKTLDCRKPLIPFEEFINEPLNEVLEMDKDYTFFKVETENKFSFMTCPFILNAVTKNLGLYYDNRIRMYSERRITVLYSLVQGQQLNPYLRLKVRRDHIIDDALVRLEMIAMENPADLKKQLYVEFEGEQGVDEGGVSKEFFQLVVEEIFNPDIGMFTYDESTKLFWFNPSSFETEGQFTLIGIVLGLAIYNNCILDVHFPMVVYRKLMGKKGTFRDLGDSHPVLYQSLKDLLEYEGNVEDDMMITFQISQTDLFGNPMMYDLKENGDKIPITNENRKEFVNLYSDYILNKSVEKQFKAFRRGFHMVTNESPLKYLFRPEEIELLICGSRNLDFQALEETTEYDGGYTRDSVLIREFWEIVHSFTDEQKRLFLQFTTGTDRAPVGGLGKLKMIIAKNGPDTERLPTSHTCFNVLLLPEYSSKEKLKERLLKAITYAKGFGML

In the case of “HPV11 E6 4C/4S separated from the MBP tag (from UniProt P04019 1-150) (natural protein)”, the stoichiometry N [1] is reported as 3 and 2.

For “HPV11 MBP-E6 4C/4S (from UniProt P04019 1-150) (natural protein)”, the stoichiometry N [2] was 2 and 3.

For HPV18 E6 (from UniProt P06463), the Kd [3] is listed as 30 µM.

B1: wild-type BPV1 MBP-E6 (natural protein)
chain: MDLKPFARTNPFSGLDCLWCREPLTEVDAFRCMVKDFHVVIREGCRYGACTICLENCLATERRLWQGVPVTGEEAELLHGKTLDRLCIRCCYCGGKLTKNEKHRHVLFNEPFCKTRANIIRGRCYDCCRHGSRSKYP
B1: binds [4].

B2: wild-type HPV11 MBP-E6 (natural protein)
chain: MESKDASTSATSIDQLCKTFNLSLHTLQIQCVFCRNALTTAEIYAYAYKNLKVVWRDNFPFAACACCLELQGKINQYRHFNYAAYAPTVEEETNEDILKVLIRCYLCHKPLCEIEKLKHILGKARFIKLNNQWKGRCLHCWTTCMEDLLP
For B2, the “stoichiometry N” value [4] was 2.
